{"source": "patent US20230287376", "key": {"[1]": {"system": "Faustovirus capping enzyme (FCE) (Faustovirus)", "settings": "5'-triphosphate; soluble, 37 C, 30 min, SAM, GTP"}, "[2]": {"system": "SNAP-FCE-T7 RNAP fusion (Faustovirus / phage T7)", "settings": "5'-triphosphate; soluble fusion"}}}
{"substance": "ppp25mer FAM RNA", "values": [{"measurement": "activity", "setting": "[1]", "value": "> 95", "unit": "% capping"}, {"measurement": "activity", "setting": "[2]", "value": "> 95", "unit": "% capping"}]}
